Experimental data reported in US20200339648A1 (University of Washington, published 2020).

T1: mouse IL-2Rβγc on murine cells (CTLL-2 T cells, primary CD4+ T cells) (mouse, UniProt P16297 27-539; P34902 23-369)
T1 sequence (looked up) 1: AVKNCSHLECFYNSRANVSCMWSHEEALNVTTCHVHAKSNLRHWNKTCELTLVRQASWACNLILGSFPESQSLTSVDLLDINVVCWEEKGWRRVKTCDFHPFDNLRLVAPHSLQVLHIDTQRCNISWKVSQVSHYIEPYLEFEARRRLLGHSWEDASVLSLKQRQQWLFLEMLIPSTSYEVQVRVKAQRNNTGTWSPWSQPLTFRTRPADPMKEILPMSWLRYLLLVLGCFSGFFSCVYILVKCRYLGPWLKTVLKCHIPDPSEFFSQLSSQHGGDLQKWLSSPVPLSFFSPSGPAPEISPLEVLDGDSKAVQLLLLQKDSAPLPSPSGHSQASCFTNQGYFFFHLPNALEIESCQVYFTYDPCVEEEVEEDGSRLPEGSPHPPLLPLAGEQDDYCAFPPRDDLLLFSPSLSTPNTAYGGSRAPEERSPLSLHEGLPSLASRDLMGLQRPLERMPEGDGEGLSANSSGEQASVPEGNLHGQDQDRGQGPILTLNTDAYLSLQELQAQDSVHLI
T1 sequence (looked up) 2: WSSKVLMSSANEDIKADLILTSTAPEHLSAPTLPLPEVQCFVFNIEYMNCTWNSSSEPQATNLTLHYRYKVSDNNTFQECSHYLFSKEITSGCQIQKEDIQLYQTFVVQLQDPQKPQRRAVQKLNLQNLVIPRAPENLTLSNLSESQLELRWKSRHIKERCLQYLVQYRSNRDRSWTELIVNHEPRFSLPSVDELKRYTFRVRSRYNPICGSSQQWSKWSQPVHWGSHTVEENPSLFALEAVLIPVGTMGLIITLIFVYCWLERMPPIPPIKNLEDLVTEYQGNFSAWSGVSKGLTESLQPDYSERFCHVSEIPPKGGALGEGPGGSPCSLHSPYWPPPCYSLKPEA

T2: mouse IL-2 receptor βγc heterodimer (mIL-2Rβγc), soluble (mouse, UniProt P16297 27-240; P34902 23-263, biotin on the C-terminal biotin acceptor peptide)
T2 construct: extracellular domain; also called MmIL-2Rβγc; mIL-2Rβνc
T2 sequence 1: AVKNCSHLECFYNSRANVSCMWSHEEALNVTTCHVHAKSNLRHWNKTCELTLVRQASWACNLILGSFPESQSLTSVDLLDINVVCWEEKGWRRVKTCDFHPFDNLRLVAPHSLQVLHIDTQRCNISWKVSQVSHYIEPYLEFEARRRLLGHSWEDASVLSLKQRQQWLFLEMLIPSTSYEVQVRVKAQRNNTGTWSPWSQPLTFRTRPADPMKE
T2 sequence 2: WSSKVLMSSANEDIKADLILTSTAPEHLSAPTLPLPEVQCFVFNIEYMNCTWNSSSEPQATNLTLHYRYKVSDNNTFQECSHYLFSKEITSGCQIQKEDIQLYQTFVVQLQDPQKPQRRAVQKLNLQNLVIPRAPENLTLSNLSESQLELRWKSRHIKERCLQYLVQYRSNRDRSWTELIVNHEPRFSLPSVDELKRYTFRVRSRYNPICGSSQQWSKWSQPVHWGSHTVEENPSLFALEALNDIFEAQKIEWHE

T3: mouse IL-2 receptor β subunit (mIL-2Rβ) (mouse, UniProt P16297 27-240, biotin on the C-terminal biotin acceptor peptide)
T3 construct: extracellular domain; Biotinylated form for SPR; also called MmIL-2Rβ; murine IL-2Rβ
T3 sequence: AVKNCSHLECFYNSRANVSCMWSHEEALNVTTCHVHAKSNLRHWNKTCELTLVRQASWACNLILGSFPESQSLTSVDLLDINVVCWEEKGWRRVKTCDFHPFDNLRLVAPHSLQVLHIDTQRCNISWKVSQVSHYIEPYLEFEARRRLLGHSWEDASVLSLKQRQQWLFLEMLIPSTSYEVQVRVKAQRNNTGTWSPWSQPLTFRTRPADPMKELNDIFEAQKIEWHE


Assays:
[1] = target: T1, mouse IL-2Rβγc on murine cells (CTLL-2 …); test: cell-based or functional assay
[2] = target: T2, mouse IL-2 receptor βγc heterodimer …; test: SPR, equilibrium titration; IL-2Rγ on streptavidin chip, saturating IL-2Rβ in solution
Description: (§1) Less than 100 response units (RU) of each ligand was immobilized to minimize mass transfer effects. […] Surface regeneration for all interactions was conducted using 15 s exposure to 1 M MgCl2 in 10 mM sodium acetate pH 5.5. SPR experiments were carried out in HBS-P+ buffer (GE Healthcare) supplemented with 0.2% bovine serum albumin (BSA) at 25° C. and all binding studies were performed at a flow rate of […] to prevent analyte rebinding. Data was visualized and processed using the Biacore T100 evaluation software version 2.0 (GE Healthcare). Equilibrium titration curve fitting and equilibrium binding dissociation (KD) value determination was implemented using GraphPad Prism assuming all binding interactions to be first order. Biolayer interferometry: binding data were collected in a Octet RED96 (ForteBio, Menlo Park, Calif.) and processed using the instrument's integrated software using a 1:1 binding model. […] Analyte proteins were diluted from concentrated stocks into binding buffer. After baseline measurement in binding buffer alone, the binding kinetics were monitored by dipping the biosensors in wells containing 100 nM of the designed protein (association) and then dipping the sensors back into baseline wells (dissociation).

[3] = target: T3, mouse IL-2 receptor β subunit (mIL-2Rβ); test: SPR, equilibrium titration; biotinylated IL-2Rβ on streptavidin chip
Description: as §1

Row | EC50 (CD25+) pSTAT5, murine T (CTLL-2, CD25+) cells [1] | Kd [2] | Kd [3] | binding result [3] | Binder
1 | 1.95 nM | 80 nM | – | – | G2_neo2_40_1F_seq04 (designed binder) TTKKIQLLVEHALLDALMILNLSSESNEKLNRIITTLQSWIFRGEIDPDRARELAKLLEEIREEMRKRGIDTEDYVSNMIVIIRELA
2 | 7.61 nM | 925 nM | – | – | G2_neo2_40_1F_dsn30 (designed binder, E. coli, N-terminal 6xHis tag and thrombin site) PEKKRQLLLEHILLDALMLLNLLETNPQNTESKFEDYISNAEVIAEELAKLMESLGLSDEAEKFKKIKQWLREVWRIWSSTNWSTLEDKARELLNRIITTIQSQIFY
3 | 1.06 nM | 27.8 nM | – | – | G2_neo2_40_1F_seq26 (designed binder) TKKKYQLLIEHALLDALMILNLWSESNEKLNRIITTMQSWIFTGTYDPDKAEELEKLAKEIEDEARERGIDTEDYMSNLRVILKELS
4 | 1.74 nM | 39.1 nM | – | – | G2_neo2_40_1F_seq12 (designed binder) TEKKLQLLVEHALLDALMILNLWSESNEKLNRIITTMQSWIFTGRIDPDKAEELAKLVEELREEARERGIDTEDYVSNLKVILKELS
5 | 37.4 nM | 2650 nM | 6800 nM | – | G1_neo2_40_1F_H1 (designed binder) STKKTQLLIEHALLDALDMSRNLPEPNEKLSRIITTMQSWIFTGKIDGDGAQQLAKEVEELEQEHEKRGEDVEDEASNLKVILLELA
6 | 84.7 nM | 5120 nM | 45300 nM | – | G1_neo2_40_1F_H5 (designed binder) STKKTQLLIEHALLDALHMSRKLPEPNEKLSRIITTMQSWIFTGKIDGDGAQHLAKEVEELEQEHEKRGGEVEDEASNLKVILLELA
7 | 35.2 nM | 3830 nM | – | no binding | G1_neo2_40_1F_H3 (designed binder) STKKTQLLIEHALLDALNMRKKLPEPNEKLSRIITDMQSWIFTGKIDGDGAQQLAKEVEELEQEHEKRGGDVEDYASNLKVILLELA
8 | 9.38 nM | 964 nM | 68300 nM | – | G1_neo2_40_1F_H2 (designed binder) STKKTQLLLEHALLDALHMRRNLPEPNEKLSRIITTMQSWIFTGKIDGDGAQELAKEVEELEQEHEKRGRDVEDDASNLKVILLELA
9 | 0.93 nM | 392 nM | 10100 nM | – | G1_neo2_40_1F_H4 (designed binder) STKKTQLLLEHALLDALHMSRELPEPNEKLNRIITDMQSWIFTGKIDGDGAQDLAKEVEELEQEHEKRGGDVEDYASNLKVILLELA
10 | 0.5 nM | 69.2 nM | – | – | G2_neo2_40_1F_dsn40 (designed binder, E. coli, N-terminal 6xHis tag and thrombin site) PEKKRQLLAEHALLDALMILNIIRTNSDNTESKLEDYISNLKVILEEIARLMESLGLSDEAEKAKEAMRLADKAGSTASEEEKKEAMNRVITWAQSWIFN
11 | 0.24 nM | 13.6 nM | – | – | G2_neo2_40_1F_seq27 (designed binder) TKKKAQLLAEHALLDALMLLNLSSESNERLNRIITWLQSIIFTGTYDPDMVKEAVKLADEIEDEMRKRGIDTEDYVSNLRVILQELA
12 | 2.2 nM | 71.5 nM | – | – | G2_neo2_40_1F_seq16 (designed binder) TKKKIQLLVEHALLDALMILNLSSKSNEKLNRIITTMQSWIFNGTIDPDRARELAKLVEEIRDEMEKNGIDTEDYVSNLKVILEELA
13 | 0.48 nM | 38.2 nM | – | – | G2_neo2_40_1F_dsn29 (designed binder, E. coli, N-terminal 6xHis tag and thrombin site) EDYYSNLKVILEELAREMERNGLSDKAEEWRQWKKIVERIRQIRSNNSDLNEAKELLNRLITYIQSQIFEISERIRETDQEKKEESWKKWQLLLEHALLDVLMLLND
